The series concerns Escherichia coli TOP10. Nature of the series: shrunken log2 fold change of peptide-encoding DNA abundance (4.5 h post-induction vs induction); higher = less antimicrobial activity (less host growth inhibition). The settings on record: time post-induction: 4.5 h; library: site-saturation at positions 5, 18, 19, 20.
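Note: peptides expressed intracellularly from a pBAD plasmid library in pooled LB shake-flask culture, induced with 0.3% L-arabinose, DNA abundance read by NGS, three biological replicates, DESeq2 with apeglm shrinkage.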

With RRIRWRPPRLPRPRPRPESGPRP, the “shrunken log2 fold change” value is 0.347. Then RRIRDRPPRLPRPRPRPDVFPRP, with 0.07; and RRIRDRPPRLPRPRPRPHAIPRP, with -0.0018; and RRIRDRPPRLPRPRPRPTNWPRP, with 0.111. As to RRIRRRPPRLPRPRPRPFCRPRP, the “shrunken log2 fold change” value was 0.551. For the sequence RRIRHRPPRLPRPRPRPTEPPRP, the “shrunken log2 fold change” value was 0.0484. In the case of RRIRDRPPRLPRPRPRPVMMPRP it was -0.168.

For the sequence RRIRIRPPRLPRPRPRPPKQPRP, the “shrunken log2 fold change” value is -0.158. Then RRIRKRPPRLPRPRPRPCEPPRP, with 0.553; and RRIRERPPRLPRPRPRPVSDPRP, with -0.26; and RRIRWRPPRLPRPRPRPINIPRP, with -1.2.

Take RRIRWRPPRLPRPRPRPWDDPRP: the “shrunken log2 fold change” value is -0.236. In the case of RRIRSRPPRLPRPRPRPCWWPRP it was 0.159; in that of RRIRGRPPRLPRPRPRPFNMPRP, -1.07; in that of RRIRIRPPRLPRPRPRPCLGPRP, -0.157. In the case of RRIRTRPPRLPRPRPRPYPFPRP it was -0.0603; in that of RRIRTRPPRLPRPRPRPSHAPRP, -0.345; in that of RRIRTRPPRLPRPRPRPHCNPRP, -0.453. In the case of RRIRIRPPRLPRPRPRPDMQPRP, the “shrunken log2 fold change” value is -0.0983. Regarding RRIRHRPPRLPRPRPRPFEYPRP, the “shrunken log2 fold change” value was -0.219. For the sequence RRIRYRPPRLPRPRPRPYMCPRP, the “shrunken log2 fold change” value was -0.0233. Then RRIRNRPPRLPRPRPRPEYNPRP, with -0.678. In the case of RRIRFRPPRLPRPRPRPMSAPRP it was -0.105. Then RRIRWRPPRLPRPRPRPGKLPRP, with -0.368; and RRIRARPPRLPRPRPRPSHCPRP, with -0.101. Turning to RRIRWRPPRLPRPRPRPFQSPRP, the “shrunken log2 fold change” value is -0.0153.

For the sequence RRIRHRPPRLPRPRPRPHVHPRP, the “shrunken log2 fold change” value was -0.201. RRIRARPPRLPRPRPRPIDEPRP: the “shrunken log2 fold change” value worked out at 0.379. On to RRIRCRPPRLPRPRPRPCDPPRP, for which the “shrunken log2 fold change” value was -0.0532. For the sequence RRIRIRPPRLPRPRPRPDWYPRP, the “shrunken log2 fold change” value was -0.842. Regarding RRIRSRPPRLPRPRPRPEQNPRP, the “shrunken log2 fold change” value stood at 0.274. Regarding RRIRDRPPRLPRPRPRPRSQPRP, the “shrunken log2 fold change” value amounted to 0.137. In the case of RRIRPRPPRLPRPRPRPEYEPRP it was -0.0375; in that of RRIRYRPPRLPRPRPRPHPIPRP, -0.0356.

Turning to RRIRPRPPRLPRPRPRPLTVPRP, the “shrunken log2 fold change” value is -0.126. For the sequence RRIRSRPPRLPRPRPRPFDPPRP, the “shrunken log2 fold change” value was -0.102. Then RRIRARPPRLPRPRPRPWTPPRP, with 0.123; and RRIRWRPPRLPRPRPRPCWYPRP, with -0.277; and RRIRGRPPRLPRPRPRPHWRPRP, with 0.203. Then RRIRTRPPRLPRPRPRPYTNPRP, with -0.0771.

With RRIRMRPPRLPRPRPRPSCPPRP, the “shrunken log2 fold change” value is -0.0916. In the case of RRIRMRPPRLPRPRPRPVDHPRP it was -0.0711.

For RRIRWRPPRLPRPRPRPNHNPRP, the “shrunken log2 fold change” value is -0.681.

Regarding RRIRGRPPRLPRPRPRPEVHPRP, the “shrunken log2 fold change” value was 0.141. Then RRIRGRPPRLPRPRPRPPTLPRP, with 0.596. Then RRIRARPPRLPRPRPRPIFQPRP, with 0.116.

For the sequence RRIRVRPPRLPRPRPRPNMMPRP, the “shrunken log2 fold change” value was -0.248. For the sequence RRIRRRPPRLPRPRPRPCHRPRP, the “shrunken log2 fold change” value is -0.0875. Then RRIRQRPPRLPRPRPRPAHGPRP, with 0.19.

For the sequence RRIRNRPPRLPRPRPRPPSTPRP, the “shrunken log2 fold change” value was 0.0609. On to RRIRTRPPRLPRPRPRPFFAPRP, for which the “shrunken log2 fold change” value is 0.223. For RRIRHRPPRLPRPRPRPNSSPRP, the “shrunken log2 fold change” value is -0.203. For the sequence RRIRTRPPRLPRPRPRPGIVPRP, the “shrunken log2 fold change” value was -0.184. For the sequence RRIRRRPPRLPRPRPRPCSEPRP, the “shrunken log2 fold change” value was -0.0216.

On to RRIRPRPPRLPRPRPRPFDCPRP, for which the “shrunken log2 fold change” value is -0.52. Then RRIRHRPPRLPRPRPRPWTFPRP, with -0.229.

In the case of RRIRMRPPRLPRPRPRPQSAPRP, the “shrunken log2 fold change” value was 0.055.

For RRIRPRPPRLPRPRPRPYEGPRP, the “shrunken log2 fold change” value was -0.0988. As for RRIRHRPPRLPRPRPRPDSRPRP, the “shrunken log2 fold change” value is -0.00136. Turning to RRIRFRPPRLPRPRPRPLIRPRP, the “shrunken log2 fold change” value is -0.382. In the case of RRIRGRPPRLPRPRPRPTDMPRP it was 1.1.

RRIRMRPPRLPRPRPRPHHPPRP: the “shrunken log2 fold change” value was -0.234. Then RRIRHRPPRLPRPRPRPECVPRP, with 0.321; and RRIRVRPPRLPRPRPRPARWPRP, with 0.586; and RRIRSRPPRLPRPRPRPPWPPRP, with 0.51. Take RRIRDRPPRLPRPRPRPQQEPRP: the “shrunken log2 fold change” value stood at 0.00606.

Regarding RRIRPRPPRLPRPRPRPDMPPRP, the “shrunken log2 fold change” value is -0.302. Then RRIRCRPPRLPRPRPRPWWQPRP, with 0.0101; and RRIRLRPPRLPRPRPRPYWKPRP, with -0.0713. Consider RRIRSRPPRLPRPRPRPHKEPRP, for which the “shrunken log2 fold change” value was -0.00927.

As to RRIRNRPPRLPRPRPRPVKLPRP, the “shrunken log2 fold change” value worked out at 0.032. Then RRIRCRPPRLPRPRPRPTNFPRP, with -0.124; and RRIRTRPPRLPRPRPRPKNFPRP, with -0.0884; and RRIRFRPPRLPRPRPRPHLNPRP, with -0.624. Then RRIRKRPPRLPRPRPRPCNAPRP, with -0.0429; and RRIRTRPPRLPRPRPRPVNEPRP, with -0.103; and RRIRKRPPRLPRPRPRPYKVPRP, with -0.558. In the case of RRIRHRPPRLPRPRPRPHGQPRP it was 0.0111; in that of RRIRGRPPRLPRPRPRPEIVPRP, 0.0103. Regarding RRIRCRPPRLPRPRPRPGSHPRP, the “shrunken log2 fold change” value is -0.0784. In the case of RRIRWRPPRLPRPRPRPVEPPRP it was 0.546; in that of RRIRYRPPRLPRPRPRPYVSPRP, -0.0075; in that of RRIRKRPPRLPRPRPRPYAMPRP, 0.202.

For the sequence RRIRSRPPRLPRPRPRPSPIPRP, the “shrunken log2 fold change” value is -0.467. Take RRIRERPPRLPRPRPRPKPHPRP: the “shrunken log2 fold change” value was found to be 0.000708. Then RRIRARPPRLPRPRPRPFHPPRP, with -0.178; and RRIRQRPPRLPRPRPRPNLSPRP, with -0.258. Then RRIRERPPRLPRPRPRPFELPRP, with -0.0731; and RRIRCRPPRLPRPRPRPMAQPRP, with -0.0404.

As for RRIRRRPPRLPRPRPRPQFRPRP, the “shrunken log2 fold change” value is -0.165. As to RRIRRRPPRLPRPRPRPWIDPRP, the “shrunken log2 fold change” value is -0.0585.

These data come from the supplement of paper PMC9112550, “Optimization of the antimicrobial peptide Bac7 by deep mutational scanning” (BMC Biology, 2022).
